Results taken from patent US20210261643A1, “INHIBITORS OF P-TEFB MEDIATED TRANSCRIPTION” (The Regents of the University of California, priority 2018, published 2021).

Assays:
[1] = test system: HIV reactivation in J-Lat 9.2 cells; assay: HIV reactivation in J-Lat 9.2 latent infection model, FACS of GFP positive cells; assay type: cell-based; conditions: J-Lat 9.2 cells, PMA 100 nM
From the text: FIGS. 4A and 4B. Stable expression of HT1 inhibits HIV reactivation. FIG. 4A: Stable expression of HT1 inhibits HIV reactivation from 2D10 cells. 3f:HT1 was stably expressed in 2D10 cells (D-HT cells). […] Error bars represent standard deviation from triplicate FACS analysis. FIG. 4B: Stable expression of HT1 inhibits HIV reactivation from J-Lat 9.2 cells. 3f:HT1 was stably expressed in J-Lat 9.2 cells (L-HT cells). […] Error bars represent standard deviation from triplicate FACS analysis.
To test the effect of HT1 on HIV-1 in T-lymphocyte derived cells, 3f:HT1 was stably expressed in HIV latent infection models 2D10 and J-Lat 9.2 cells (D-HT and L-HT cells respectively), which carry replication-defective, GFP-flagged HIV proviruses. In both 2D10 and J-Lat 9.2, the basal HIV transcription level is undetectable, as measured through GFP expression. Compounds such as the PKC agonist PMA, the histone deacetylase inhibitor SAHA or the BET bromodomain inhibitor JQ1 reactivate HIV transcription and increase GFP-positive cells detected by FACS analysis. 2D10 cells are more sensitive to HIV reactivation than J-Lat 9.2 cells, though they harbor a mutation in the N-terminal sequence of Tat (H13L). 2D10 and D-HT cells were incubated for 24 hrs with PMA (10 nM), SAHA (5 μM) or JQ1 (1 μM) and GFP positive cells were detected by FACS analysis. […]

[2] = test system: Tat-dependent gene expression from the HIV promoter; assay: Luciferase reporter assay, pLTR-Luc co-transfected with pTat and pHT in 293T cells; assay type: cell-based
From the text: FIGS. 2A, 2B, and 2C. A HEXIM1-Tat fusion peptide inhibits gene expression from the HIV promoter. FIG. 2A. Structure of the HEXIM1-Tat fusion peptides used in the study. The functional domains used from HEXIM1 and Tat include a HEXIM1 Arginine Rich Motif (ARM, black box, residues 150-162) that binds RNA, a HEXIM1 inhibitory domain (ID, light grey box, residues 200-211) that inhibits CDK9 through a PYNT motif, and Tat transactivation domain (AD, dark grey box, residues 1-48) that binds to P-TEFb. The conceptual schemes are not drawn to scale. FIG. 2B. Transient expression of HT1 inhibits Tat-induced LTR-driven Luc expression. Upper panel: a schema depicts the reporter assay. A luciferase reporter gene (Luc) is under the control of the HIV promoter (P-HIV) and can be activated by ectopically expressed Tat. The Luc assay was used to titrate the inhibitory effect of HT1-3 on P-HIV transactivation by Tat. Middle panel: increasing amounts of m:HT1, m:HT2 or m:HT3 expressing plasmid (pHT) were co-transfected in 293T cells with a plasmid (pTat) expressing f:Tat and another (pLTR-Luc) expressing Luc under the control of the HIV promoter. Luc activity was plotted as % activity relative to control (empty vector used instead of pHT), depending on the transfected pHT:pTat ratio. Error bars in the graph represent standard deviation from triplicate experiments. FIG. 2C. Transient expression of HT1 inhibits Luc expression from HIV-1 NL43ΔenvLuc. Top schema depicts the reporter assay. A luciferase reporter gene (Luc) is inserted in a replication-defective HIV-1 molecular clone (pNL43ΔenvLuc) in which Luc and Tat are under the control of the HIV promoter (P-HIV). A Luc assay was used to titrate the inhibitory effect of HT1-3 on P-HIV transactivation by Tat. Bottom: increasing amounts of pHT1 were co-transfected in 293T cells with pNL43ΔenvLuc. Luc activity was plotted as % activity relative to control (empty vector used instead of pHT), depending on the transfected amounts of pHT1. Error bars in the graph represent standard deviation from triplicate experiments.
Luciferase (Luc) reporter assays were performed to titrate the potency of each chimera to inhibit Tat-dependent gene expression from the HIV promoter. Effector plasmids included pHT1-3 and pTat, which respectively expressed a Myc-epitope tag chimera (m:HT1-3) and a Flag-epitope tagged Tat (f:Tat). pHT1, pHT2 or pHT3 was transiently co-transfected in 293T cells with pTat and a Luc reporter gene under the control of the HIV promoter (P-HIV, expressed from the plasmid pLTR-Luc). […] Finally, HT1 lead to a 4-fold decrease in Luc expression at a 2:1 ratio. […] Similar results were obtained when co-transfecting pHT1-3 and pTat in NIH1 cells, which stably carry an LTR-Luc reporter gene. Thus, we selected HT1 for further investigation.

[3] = biological target: positive transcription elongation factor B (UniProt O60563 1-726; P50750 1-372); assay: cell-based or functional assay
positive transcription elongation factor B, sequence (O60563 whole entry, chain 1 of 2): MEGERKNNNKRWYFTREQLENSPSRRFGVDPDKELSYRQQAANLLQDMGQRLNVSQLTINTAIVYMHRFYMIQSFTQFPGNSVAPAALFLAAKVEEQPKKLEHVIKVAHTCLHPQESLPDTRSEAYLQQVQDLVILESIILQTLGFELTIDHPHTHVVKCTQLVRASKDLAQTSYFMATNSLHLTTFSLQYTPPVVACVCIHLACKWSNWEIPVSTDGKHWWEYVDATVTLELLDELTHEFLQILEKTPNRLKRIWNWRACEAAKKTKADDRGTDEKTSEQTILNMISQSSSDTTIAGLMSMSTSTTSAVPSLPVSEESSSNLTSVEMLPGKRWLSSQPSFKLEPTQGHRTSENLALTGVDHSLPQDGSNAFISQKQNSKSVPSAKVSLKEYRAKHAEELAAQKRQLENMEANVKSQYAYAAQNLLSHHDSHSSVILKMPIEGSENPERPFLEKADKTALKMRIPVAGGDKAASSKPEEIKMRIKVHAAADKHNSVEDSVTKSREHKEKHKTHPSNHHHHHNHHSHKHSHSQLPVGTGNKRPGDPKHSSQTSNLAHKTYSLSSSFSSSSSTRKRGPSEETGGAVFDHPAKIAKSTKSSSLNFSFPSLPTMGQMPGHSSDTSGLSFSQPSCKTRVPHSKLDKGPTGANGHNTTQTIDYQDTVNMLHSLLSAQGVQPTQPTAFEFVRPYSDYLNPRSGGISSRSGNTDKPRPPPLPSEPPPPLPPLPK
positive transcription elongation factor B, sequence (P50750 whole entry, chain 2 of 2): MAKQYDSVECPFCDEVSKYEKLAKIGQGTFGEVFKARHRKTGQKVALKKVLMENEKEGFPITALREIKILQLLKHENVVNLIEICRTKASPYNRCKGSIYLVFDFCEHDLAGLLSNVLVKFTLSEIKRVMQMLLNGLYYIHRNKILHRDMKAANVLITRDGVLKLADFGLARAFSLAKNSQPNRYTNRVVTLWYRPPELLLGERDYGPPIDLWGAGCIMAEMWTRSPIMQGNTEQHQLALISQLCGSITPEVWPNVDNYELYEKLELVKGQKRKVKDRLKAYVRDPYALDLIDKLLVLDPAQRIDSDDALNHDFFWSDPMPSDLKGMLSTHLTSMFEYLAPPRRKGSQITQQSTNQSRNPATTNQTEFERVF

HIV TAR RNA = assay: RNA immunoprecipitation and RT-qPCR with TAR-specific primers in 293T cells; assay type: binding; conditions: 293T cells, anti-Myc Ab, RT-qPCR
Experimental: FIGS. 3A, 3B, 3C and 3D. HT1 prevents Tat from bringing active P-TEFb to TAR. FIG. 3A: HT1 inhibits the kinase activity of P-TEFb subunit CDK9. m:HT1 and/or f:Tat were transiently expressed in 293T cells. Cell lysates were used for IP using anti-Myc Ab (lanes 2-4), or control IgG (lane 1). Immunoprecipitates were incubated with ATP and recombinant GST-CTD proteins for in vitro kinase assay. Six replicate experiments were performed, and mean relative kinase activities are shown in the bar graph to the right. FIG. 3B: HT1 binds to TAR. m:HT1 or m:Tat (or empty vector, EV, as a control) was transiently co-expressed with TAR RNA-expressing pU16TAR in 293T cells. Cell lysates were used for IP using anti-Myc Ab or control IgG. RNA was purified from the immunoprecipitates and submitted to RT-qPCR using TAR-specific primers. Relative TAR enrichment was calculated as qPCR count using anti-Myc Ab minus using IgG, and normalized to EV. Error bars represent standard deviation from triplicate qPCR assays. […] Error bars represent standard deviation from triplicate qPCR assays. FIG. 3D: HT1 competes with Tat for TAR binding. m:HT1 and/or f:Tat were transiently co-expressed with TAR RNA-expressing pU16TAR in 293T cells. Cell lysates were used for IP using anti-Myc Ab or control IgG. RNA was purified from the immunoprecipitates and submitted to RT-qPCR using TAR-specific primers (upper panel). Relative TAR enrichment was calculated as qPCR count using anti-Myc Ab minus using IgG, and normalized to EV. Error bars represent standard deviation from triplicate qPCR assays.
Finally, since HEXIM1 ARM resembles the TAR-binding domain from Tat, we investigated whether HT1 could bind to HIV TAR. m:HT1 or m:Tat was co-expressed in 293T cells with TAR RNA, expressed under RNA Polymerase III dependent H1 promoter, and immunoprecipitated using anti-Myc Ab or IgG as a control. TAR RNAs co-immunoprecipitated with HT1 or Tat were quantified by RT-qPCR analysis. […] To test whether HT1 affects Tat-TAR interactions, increasing amounts of m:HT1 were also co-expressed with a fixed amount of f:Tat and TAR. […] As expected, HT1 also bound to endogenous 7SK snRNA.

In the case of CCCCCCCCCCCCCC(=O)O[C@@H]1[C@@H](C)[C@@]2(O)[C@@H](C=C(CO)C[C@]3(O)C(=O)C(C)=C[C@@H]23)[C@@H]2C(C)(C)[C@]12OC(C)=O [PMA, reference compound], the “increase in GFP expression” value [1] is reported as 12%.

B1: THT: fusion protein of TAT ARM, HEXIM CDK9 inhibitory domain and TAT P-TEFb-binding domain (protein)
chain: MEQKLISEEDLRKKRRQRRRAPPGGGGSRIRAEMFAKGQPVAPYNTTQFLMDDHDQEEPDLVDMEPVDPYLEPWKHPGSQPRTACNNCYCKKCCFHCYACFTRKGLGISYG
For B1, the “inhibition of HIV transcription in luciferase assays (in words)” value ([2]; luciferase assays performed as in Example 1) was “potently inhibited”.

B2: Myc-epitope tagged HEXIM1-Tat chimera HT1 (designed binder)
chain: KKKHRRRPSKKKRHWKPYYKLTWEEKKKFDEKQSLRASRIRAEMFAKGQPVAPYNTTQFLMDDHDQEEPDLVDMEPVDPYLEPWKHPGSQPRTACNNCYCKKCCFHCYACFTRKGLGISYG
In the case of B2, the “fold decrease in relative kinase activity (CTD-P band intensity normalized with CDK9), in vitro kinase assay on immunoprecipitates with ATP and GST-CTD” value [3] is reported as 3.1 fold.

B3: HT3 (protein)
chain: FDEKQSLRASRIRAEMFAKGQPVAPYNTTQFLMDDHDQEEPDLVDMEPVDPYLEPWKHPGSQPRTACNNCYCKKCCFHCYACFTRKGLGISYG
In the case of B3, the “decrease in Luc expression from the HIV promoter” value ([2]; 293T cells, pHT:pTat ratio 2:1) is reported as ≤ 2 fold and the “immunoprecipitation of TAR RNA (in words)” value (HIV TAR RNA) is reported as “failed to bind TAR”.

B4: HT2 (protein)
chain: KKKHRRRPSKKKRHWKPYYKLTWEEKKKVDMEPVDPYLEPWKHPGSQPRTACNNCYCKKCCFHCYACFTRKGLGISYG
With B4 the “inhibition of Luc expression from the HIV promoter (in words)” value ([2]; 293T cells, ratio of pHT2 to pTat 2:1) was “failed to inhibit”.
